Assay results: PMC5493658, “Post-secretional activation of Protease IV by quorum sensing in Pseudomonas aeruginosa” (Scientific Reports, 2017)

Target: T1, P-PIV: His-tagged protease IV (PIV) purified from PAO-T7 (Pseudomonas aeruginosa, UniProt Q9HWK6 212-462)
T1 construct: Protease IV (PIV), lysyl-endopeptidase encoded by piv, Pseudomonas aeruginosa; 26 kDa mature PIV left after removal of the signal peptide and the propeptide (residues 1-211 of the 48 kDa prepro-PIV); because the N-terminus is processed twice during secretion it is probably C-terminal (surmise); also called His-tagged active PIV; mature PIV; source: P. aeruginosa PAO-T7 harboring pQF21c-PIV, …
T1 sequence: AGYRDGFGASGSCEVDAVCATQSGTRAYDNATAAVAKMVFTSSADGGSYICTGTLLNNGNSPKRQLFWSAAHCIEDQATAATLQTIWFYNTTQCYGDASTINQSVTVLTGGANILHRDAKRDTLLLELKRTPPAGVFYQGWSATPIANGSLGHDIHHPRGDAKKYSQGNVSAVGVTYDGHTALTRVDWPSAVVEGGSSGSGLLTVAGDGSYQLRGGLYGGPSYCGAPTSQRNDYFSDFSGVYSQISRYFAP
Assay: pull-down; 1 ug purified propeptide mixed with 1 ug His-tagged P-PIV in 25 ul, room temperature 10 min; loaded on Ni-NTA agarose column, washed twice with 5 mM imidazole, eluted with 200 mM imidazole; SDS-PAGE
Conditions: both partners purified

B1: propeptide of PIV purified from E. coli (domain or fragment)
chain: APGASEMAGDVAVLQASPASTGHARFANPNAAISAAGIHFAAPPARRVARAAPLAPKPGTPLQVGVGLKTATPEIDLTTLEWIDTPDGRHTARFPISAAGAASLRAAIRLETHSGSLPDDVLLHFAGAGKEIFEASGKDLSVNRPYWSPVIEGDTLTVELVLPANLQPGDLRLSVPQVSYFADSLYK
notes: Propeptide of protease IV (PIV), Pseudomonas aeruginosa; expressed as residues 1-211 of prepro-PIV (signal peptide and propeptide); also called purified propeptide; PP; source: E. coli BL21 (DE3) harboring pET16b-pro, purified (Ni-NTA, Q sepharose, size exclusion chromatography); not shown: His tag, N-terminal, cleaved
B1: binds.
